Assay results taken from patent publication US20090311271A1.

What was measured:
[1] = biological target: human LOX-1 expressed on the cell surface (human) (UniProt P78380); test: flow cytometry: DI-oxLDL (0-100 ug/ml) on CHO/LOX-1 cells, 60 min at 4 C; y axis MFI Signal
[2] = biological target: human LOX-1 expressed on the cell surface (human) (UniProt P78380); test: flow cytometry, DI-oxLDL on CHO/LOX-1 cells
[3] = biological target: purified recombinant human LOX1 comprised of the extracellular domain (ECD) of human LOX-1 (amino acids 61-273) with an N-terminal polyhistidine tag (human) (UniProt P78380); test: AlphaScreen competition on His-LOX-1, unlabelled competitor titrated; labelled ligand biotin-CRP (1 ug/ml) with His-LOX-1 (1 ug/ml) by the panel list of paragraph 265; later sentences of paragraph 265 cite 2B and 2C the other way and the sheet prints no title
[4] = biological target: human LOX-1 expressed on the cell surface (human) (UniProt P78380); test: flow cytometry: DI-oxLDL (0-100 ug/ml) on CHO/LOX-1 cells, 60 min at 4 C, MFI

Human oxidized LDL
Bmax [1]: 96.6 | Kd [2]: 22 mg/L | IC50 (read off the curve) [3]: 0.2 mg/L | Kd [4]: 22 mg/L
